The source of these data is article PMC10786891, “Massively parallel profiling of RNA-targeting CRISPR-Cas13d”.

The labels stand for the following.
T1: EsCas13d, nuclease-dead (Eubacterium siraeum, UniProt B0MS50, R295A;H300A;R849A;H854A)
T1 sequence: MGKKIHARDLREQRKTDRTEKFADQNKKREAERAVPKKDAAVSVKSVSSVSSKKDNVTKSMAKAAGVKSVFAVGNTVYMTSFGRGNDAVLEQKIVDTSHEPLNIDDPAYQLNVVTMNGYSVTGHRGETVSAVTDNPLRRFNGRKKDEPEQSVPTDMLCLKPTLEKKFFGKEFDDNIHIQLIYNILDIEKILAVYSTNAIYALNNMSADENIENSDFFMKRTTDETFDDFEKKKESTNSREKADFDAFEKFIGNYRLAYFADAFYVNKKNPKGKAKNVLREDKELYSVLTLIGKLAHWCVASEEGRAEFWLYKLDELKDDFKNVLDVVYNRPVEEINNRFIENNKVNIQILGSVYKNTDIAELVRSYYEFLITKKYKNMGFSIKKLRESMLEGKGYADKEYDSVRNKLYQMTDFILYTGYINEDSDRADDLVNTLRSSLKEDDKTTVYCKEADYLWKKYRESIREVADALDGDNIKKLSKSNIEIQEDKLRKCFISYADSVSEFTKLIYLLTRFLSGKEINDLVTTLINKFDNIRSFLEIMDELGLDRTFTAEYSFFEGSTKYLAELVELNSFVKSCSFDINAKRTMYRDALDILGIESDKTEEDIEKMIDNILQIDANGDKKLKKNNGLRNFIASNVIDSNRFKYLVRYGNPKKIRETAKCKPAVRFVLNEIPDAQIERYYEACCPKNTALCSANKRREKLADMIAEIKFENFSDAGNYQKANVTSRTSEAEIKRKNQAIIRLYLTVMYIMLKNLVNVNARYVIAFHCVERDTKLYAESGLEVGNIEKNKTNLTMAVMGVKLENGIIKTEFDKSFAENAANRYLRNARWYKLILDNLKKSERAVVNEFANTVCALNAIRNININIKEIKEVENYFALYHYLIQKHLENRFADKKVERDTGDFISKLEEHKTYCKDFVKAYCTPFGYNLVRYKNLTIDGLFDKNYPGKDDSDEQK

B1: target 2 MT 5'PFS UUA 3'PFS AUC (mixed)
RNA 1: CACCCGUGCAAAAUUGCAGGGGUCUAAAACCUUCUCCAAAUUGUUUCAUCCU
RNA 2: GGGAAUGGAUCCACAUCUACGAAUUCUUAAGGAUGAAACAAUUUGGAGAAGAUCAGAUCGGAAGAGCACACGU
B2: target 2 MT 5'PFS GGU 3'PFS AGU (mixed)
RNA 1: CACCCGUGCAAAAUUGCAGGGGUCUAAAACCUUCUCCAAAUUGUUUCAUCCU
RNA 2: GGGAAUGGAUCCACAUCUACGAAUUCGGUAGGAUGAAACAAUUUGGAGAAGAGUAGAUCGGAAGAGCACACGU
B3: target 2 MT 5'PFS AAG 3'PFS CCG (mixed)
RNA 1: CACCCGUGCAAAAUUGCAGGGGUCUAAAACCUUCUCCAAAUUGUUUCAUCCU
RNA 2: GGGAAUGGAUCCACAUCUACGAAUUCAAGAGGAUGAAACAAUUUGGAGAAGCCGAGAUCGGAAGAGCACACGU
B4: target 2 MT 5'PFS ACU 3'PFS CGG (mixed)
RNA 1: CACCCGUGCAAAAUUGCAGGGGUCUAAAACCUUCUCCAAAUUGUUUCAUCCU
RNA 2: GGGAAUGGAUCCACAUCUACGAAUUCACUAGGAUGAAACAAUUUGGAGAAGCGGAGAUCGGAAGAGCACACGU
B5: target 2 MT 5'PFS AAG 3'PFS CCA (mixed)
RNA 1: CACCCGUGCAAAAUUGCAGGGGUCUAAAACCUUCUCCAAAUUGUUUCAUCCU
RNA 2: GGGAAUGGAUCCACAUCUACGAAUUCAAGAGGAUGAAACAAUUUGGAGAAGCCAAGAUCGGAAGAGCACACGU
B6: target 2 MT 5'PFS UUA 3'PFS AUG (mixed)
RNA 1: CACCCGUGCAAAAUUGCAGGGGUCUAAAACCUUCUCCAAAUUGUUUCAUCCU
RNA 2: GGGAAUGGAUCCACAUCUACGAAUUCUUAAGGAUGAAACAAUUUGGAGAAGAUGAGAUCGGAAGAGCACACGU
B7: target 2 MT 5'PFS CAU 3'PFS UCC (mixed)
RNA 1: CACCCGUGCAAAAUUGCAGGGGUCUAAAACCUUCUCCAAAUUGUUUCAUCCU
RNA 2: GGGAAUGGAUCCACAUCUACGAAUUCCAUAGGAUGAAACAAUUUGGAGAAGUCCAGAUCGGAAGAGCACACGU
B8: target 2 MT 5'PFS GGG 3'PFS CUG (mixed)
RNA 1: CACCCGUGCAAAAUUGCAGGGGUCUAAAACCUUCUCCAAAUUGUUUCAUCCU
RNA 2: GGGAAUGGAUCCACAUCUACGAAUUCGGGAGGAUGAAACAAUUUGGAGAAGCUGAGAUCGGAAGAGCACACGU
B9: target 2 MT 5'PFS GGG 3'PFS CUC (mixed)
RNA 1: CACCCGUGCAAAAUUGCAGGGGUCUAAAACCUUCUCCAAAUUGUUUCAUCCU
RNA 2: GGGAAUGGAUCCACAUCUACGAAUUCGGGAGGAUGAAACAAUUUGGAGAAGCUCAGAUCGGAAGAGCACACGU
B10: target 2 MT 5'PFS GGG 3'PFS CUU (mixed)
RNA 1: CACCCGUGCAAAAUUGCAGGGGUCUAAAACCUUCUCCAAAUUGUUUCAUCCU
RNA 2: GGGAAUGGAUCCACAUCUACGAAUUCGGGAGGAUGAAACAAUUUGGAGAAGCUUAGAUCGGAAGAGCACACGU
B11: target 2 MT 5'PFS CGA 3'PFS CCG (mixed)
RNA 1: CACCCGUGCAAAAUUGCAGGGGUCUAAAACCUUCUCCAAAUUGUUUCAUCCU
RNA 2: GGGAAUGGAUCCACAUCUACGAAUUCCGAAGGAUGAAACAAUUUGGAGAAGCCGAGAUCGGAAGAGCACACGU
B12: target 2 MT 5'PFS UUA 3'PFS AUU (mixed)
RNA 1: CACCCGUGCAAAAUUGCAGGGGUCUAAAACCUUCUCCAAAUUGUUUCAUCCU
RNA 2: GGGAAUGGAUCCACAUCUACGAAUUCUUAAGGAUGAAACAAUUUGGAGAAGAUUAGAUCGGAAGAGCACACGU
B13: target 2 MT 5'PFS CAU 3'PFS UCG (mixed)
RNA 1: CACCCGUGCAAAAUUGCAGGGGUCUAAAACCUUCUCCAAAUUGUUUCAUCCU
RNA 2: GGGAAUGGAUCCACAUCUACGAAUUCCAUAGGAUGAAACAAUUUGGAGAAGUCGAGAUCGGAAGAGCACACGU
B14: target 2 MT 5'PFS CUU 3'PFS UAA (mixed)
RNA 1: CACCCGUGCAAAAUUGCAGGGGUCUAAAACCUUCUCCAAAUUGUUUCAUCCU
RNA 2: GGGAAUGGAUCCACAUCUACGAAUUCCUUAGGAUGAAACAAUUUGGAGAAGUAAAGAUCGGAAGAGCACACGU
B15: target 2 MT 5'PFS AGA 3'PFS AUC (mixed)
RNA 1: CACCCGUGCAAAAUUGCAGGGGUCUAAAACCUUCUCCAAAUUGUUUCAUCCU
RNA 2: GGGAAUGGAUCCACAUCUACGAAUUCAGAAGGAUGAAACAAUUUGGAGAAGAUCAGAUCGGAAGAGCACACGU
B16: target 2 MT 5'PFS AGA 3'PFS AUG (mixed)
RNA 1: CACCCGUGCAAAAUUGCAGGGGUCUAAAACCUUCUCCAAAUUGUUUCAUCCU
RNA 2: GGGAAUGGAUCCACAUCUACGAAUUCAGAAGGAUGAAACAAUUUGGAGAAGAUGAGAUCGGAAGAGCACACGU
B17: target 2 MT 5'PFS CUU 3'PFS UAC (mixed)
RNA 1: CACCCGUGCAAAAUUGCAGGGGUCUAAAACCUUCUCCAAAUUGUUUCAUCCU
RNA 2: GGGAAUGGAUCCACAUCUACGAAUUCCUUAGGAUGAAACAAUUUGGAGAAGUACAGAUCGGAAGAGCACACGU
B18: target 2 MT 5'PFS UUA 3'PFS AUA (mixed)
RNA 1: CACCCGUGCAAAAUUGCAGGGGUCUAAAACCUUCUCCAAAUUGUUUCAUCCU
RNA 2: GGGAAUGGAUCCACAUCUACGAAUUCUUAAGGAUGAAACAAUUUGGAGAAGAUAAGAUCGGAAGAGCACACGU
B19: target 2 MT 5'PFS AGA 3'PFS AUA (mixed)
RNA 1: CACCCGUGCAAAAUUGCAGGGGUCUAAAACCUUCUCCAAAUUGUUUCAUCCU
RNA 2: GGGAAUGGAUCCACAUCUACGAAUUCAGAAGGAUGAAACAAUUUGGAGAAGAUAAGAUCGGAAGAGCACACGU
B20: target 2 MT 5'PFS ACU 3'PFS CGU (mixed)
RNA 1: CACCCGUGCAAAAUUGCAGGGGUCUAAAACCUUCUCCAAAUUGUUUCAUCCU
RNA 2: GGGAAUGGAUCCACAUCUACGAAUUCACUAGGAUGAAACAAUUUGGAGAAGCGUAGAUCGGAAGAGCACACGU
B21: target 2 MT 5'PFS CUU 3'PFS UAG (mixed)
RNA 1: CACCCGUGCAAAAUUGCAGGGGUCUAAAACCUUCUCCAAAUUGUUUCAUCCU
RNA 2: GGGAAUGGAUCCACAUCUACGAAUUCCUUAGGAUGAAACAAUUUGGAGAAGUAGAGAUCGGAAGAGCACACGU
B22: target 2 MT 5'PFS CGA 3'PFS UAC (mixed)
RNA 1: CACCCGUGCAAAAUUGCAGGGGUCUAAAACCUUCUCCAAAUUGUUUCAUCCU
RNA 2: GGGAAUGGAUCCACAUCUACGAAUUCCGAAGGAUGAAACAAUUUGGAGAAGUACAGAUCGGAAGAGCACACGU
B23: target 2 MT 5'PFS GGG 3'PFS CUA (mixed)
RNA 1: CACCCGUGCAAAAUUGCAGGGGUCUAAAACCUUCUCCAAAUUGUUUCAUCCU
RNA 2: GGGAAUGGAUCCACAUCUACGAAUUCGGGAGGAUGAAACAAUUUGGAGAAGCUAAGAUCGGAAGAGCACACGU
B24: target 2 MT 5'PFS CGA 3'PFS CCA (mixed)
RNA 1: CACCCGUGCAAAAUUGCAGGGGUCUAAAACCUUCUCCAAAUUGUUUCAUCCU
RNA 2: GGGAAUGGAUCCACAUCUACGAAUUCCGAAGGAUGAAACAAUUUGGAGAAGCCAAGAUCGGAAGAGCACACGU
B25: target 2 MT 5'PFS CUU 3'PFS UAU (mixed)
RNA 1: CACCCGUGCAAAAUUGCAGGGGUCUAAAACCUUCUCCAAAUUGUUUCAUCCU
RNA 2: GGGAAUGGAUCCACAUCUACGAAUUCCUUAGGAUGAAACAAUUUGGAGAAGUAUAGAUCGGAAGAGCACACGU
B26: target 1 G5C,A9U (mixed)
RNA 1: CACCCGUGCAAAAAUGCAGGGGUCUAAAACUGAGCGGAUAACCUCUCUAUGG
RNA 2: GGGAAUGGAUCCACAUCUACGAAUUCGUACCAUAGAGAGGUUUUCCCCUCACCGAGAUCGGAAGAGCACACGU
B27: target 1 insG 3' of 22,insG 3' of 4 (mixed)
RNA 1: CACCCGUGCAAAAAUGCAGGGGUCUAAAACUGAGCGGAUAACCUCUCUAUGG
RNA 2: GGGAAUGGAUCCACAUCUACGAAUUCGUACGCAUAGAGAGGUUAUCCGCGUCACCGAGAUCGGAAGAGCACACGU

The data set concerns the target T1, EsCas13d, nuclease-dead. The experiment in a line: crRNA (strand 1, pre-loaded); Mg2+; 40 mM Tris-HCl pH 7.5, 150 mM NaCl, 6 mM MgCl2, 1 mM DTT, 0.1% Tween-20, 0.2 mg/ml BSA; 25 C; 10 min per concentration, then washed. Particulars: tags: His6-TwinStrep-SUMO cleaved; N-terminal SNAP kept (SNAP-Surface 488); label: 3' end held by stalled T7 RNA polymerase.
B1: the affinity, expressed as Kd, was 31 ± 5 nM.

As for B2, the Kd stood at 17.7 ± 2.6 nM.

B3 had a dissociation constant Kd of 6.3 ± 0.9 nM.

In turn, B4 had a Kd of 3.47 ± 0.28 nM.

Regarding B5, binding was put at a Kd of 8.7 ± 1.6 nM.

B6 displayed a Kd of 50 ± 13 nM.

B7 returned a Kd of 8.1 ± 0.7 nM.

Turning to B8, the affinity, expressed as Kd, was 11.7 ± 1 nM.

Consider B9, for which the Kd amounted to 15.5 ± 1.6 nM. The Kd values of the last two molecules are within 1.5-fold of each other.

Molecule B10 registered a dissociation constant (Kd) of 14.2 ± 1.4 nM.

Regarding B11, the dissociation constant (Kd) came to 11.1 ± 1.6 nM.

For B12, the dissociation constant Kd is 18.5 ± 1.4 nM.

For B13, binding was put at a Kd of 3.8 ± 0.4 nM.

B14 displayed a dissociation constant (Kd) of 3 ± 0.32 nM.

B15: the Kd came out at 9.6 ± 2.3 nM.

B16 yielded a Kd of 8.2 ± 1.3 nM.

B17: the dissociation constant (Kd) was 4.9 ± 0.6 nM.

Molecule B18 came in with a Kd of 27 ± 6 nM.

Take B19: the dissociation constant (Kd) was ~5.7 nM.

Consider B20, for which the Kd worked out at 8.1 ± 1.3 nM.

Molecule B21 came in with a Kd of 4.3 ± 0.8 nM.

On to B22, for which the Kd was 9.5 ± 1.9 nM.

Consider B23, for which the dissociation constant Kd was found to be 10.9 ± 1.9 nM.

Consider B24, for which the dissociation constant (Kd) came to 31 ± 8 nM. This Kd is about 2.8-fold higher than that of the molecule before.

B25: the equilibrium dissociation constant (Kd) is 3.22 ± 0.27 nM. This Kd is about 9.6-fold lower than that of the molecule before.

Turning to B26, the affinity, expressed as Kd, was 11.8 ± 0.6 nM.

Turning to B27, the dissociation constant Kd stood at 26.2 ± 2.8 nM.

For orientation: Kd means the free concentration of one partner at which half of the binding sites on the other are occupied at equilibrium, for simple one-to-one binding. A high value points to lower affinity.
